Measurements reported in patent publication US8680233B2, “Heteropeptides useful for reducing nonspecific adsorption” (Valorisation-Recherche, Limited Partnership, priority 2009, dated 2014).
Square brackets hold non-standard residues; d marks the D form. Ends that are not written are not given here. Mpa = O=C(O)CCS

Key:
Type in all cases: physicochemical
[1] = Secondary structure of peptide SAM by FT-IR (mid-IR amide band); details: peptide SAM on gold-coated SPR sensor
Description: Microscope slides (BK7, 22×22 mm) were coated with a 3 nm titanium (Ti) adhesion layer and a 50 nm gold (Au) layer (purity 99.99%, ESPI metals) using a Cressington™ 308R sputter coater. These Au-coated SPR slides were immersed for at least 16 h in a 5 mM peptide solution in absolute ethanol to form a well-ordered monolayer (Masson, J. F. et al. Talanta 2004, 64: 716). Four replicates were prepared for each 3-MPA-peptide. The SAM formed on the SPR sensors was extensively rinsed with DMF and ethanol and dried. The mid-IR spectrum of the peptide monolayers immobilized on the SPR sensors was measured in attenuated total reflectance (ATR). Mid-IR spectra were recorded using a BRUKER TENSOR® 27 equipped with a Ge-ATR module.
The 3D structure of the peptides as SAMs is observed with the amide band visible in FT-IR. Peptides adopting an α-helix configuration are showing a strong amide band at 1645 cm^−1, while peptides auto-assembling in the β-sheet configuration leads to a shifted amide at 1675 cm^−1. Every peptide structure investigated in Table 1 adopted an α-helix configuration except for 3-MPA-HHHDD-OH, as shown in FIG. 3.
(§1) Peptides adopt secondary conformation, which plays a significant role in their biological activity. For peptides in solution, the secondary conformation is measured with CD, while peptides immobilized on a surface can be analyzed with mid-IR spectroscopy of the amide bands (Duevel, R. V., Corn, R. M., 1992. Analytical Chemistry 64(4), 337-342; Sakurai, T. et al., 2006. Journal of Peptide Science 12(6), 396-402). As listed in Table II, the secondary structure of most peptides adopted an α-helical conformation, with the exception of 3-MPA-DSDSD-OH, which adopted an extended conformation. As noted above, most peptides in the form of 3-MPA-peptide-OH adopt an α-helical conformation. Generally, mid-IR and CD agreed in the determination of the structures on surfaces and in solution, with the exception of one peptide. […] No relationship between structure and nonspecific adsorption could be established.

[2] = Secondary structure of peptide in solution by CD
Description: as §1

[3] = Surface concentration of the peptide monolayer on Au by SPR; details: peptide SAM on Au SPR sensor; average of four replicates
Description: The surface coverage for each monolayer was measured according to the change in response of the SPR sensor in PBS for the bare Au surface relative to the peptide-coated Au surface. To measure the formation of the monolayers, each SPR sensor was mounted on a custom-made SPR instrument in the Kretschmann configuration based on a dove prism with wavelength interrogation as previously described (Bolduc et al., 2009, supra). An Ocean Optics™ USB4000 fibre optic spectrometer ranging from 550 to 850 nm was used to acquire the spectral information processed with Matlab to obtain the SPR sensorgram. A 25 μL Teflon fluidic cell positioned on top of the SPR sensors was used to inject the solutions required to functionalize with the recognition element and detect the analytes of interest. The SPR response was acquired at a frequency of 1 Hz. The s-polarized reference was acquired in PBS buffer before monitoring a 5 minute baseline in p-polarization. PBS was replaced with crude bovine serum (76 mg/mL protein) for 20 minutes and rinsed with PBS for 5 minutes to quantify the amount of non-specifically adsorbed proteins.
The formation of monolayers on Au was measured to ensure that the peptide monolayers are indeed binding to the SPR sensor. The surface concentration of the monolayer provides a measurement of the number of molecules per square cm (i.e. the density of the monolayer at the surface). The surface concentration (Γ) of peptide-like self-assembled monolayers (SAMs) was characterized with the measurement of the SPR response before the formation of the SAMs and after their formation on the Au surface of the SPR sensor. The difference of SPR wavelength (λSPR) between these two measurements increases with the increasing surface concentration of the SAMs following the equation proposed by Jung et al. (Jung, L. S. et al. Langmuir 1998, 14: 5636): Γ=ρ(−0.5/d)ln(1−(ΔλSPRm^−1(ηSAM−ηPBS)^−1)) (eq. 1)

[4] = Advancing contact angle in PBS on peptide SAMs; details: average of four replicates

| Substance | Secondary Structure FT-IR (SAM) [1] | Secondary Structure CD (solution) [2] | Surface density ΔΓSAM [3] | Contact angle in PBS θC_PBS [4] |
| --- | --- | --- | --- | --- |
| 3-MPA-DHDHD-OH ([Mpa]DHDHD-OH; SMILES O=C(O)C[C@H](NC(=O)[C@H](Cc1c[nH]cn1)NC(=O)[C@H](CC(=O)O)NC(=O)[C@H](Cc1c[nH]cn1)NC(=O)[C@H](CC(=O)O)NC(=O)CCS)C(=O)O) | α | α |  |  |
| 3-MPA-SHDSHD-OH ([Mpa]SHDSHD-OH; SMILES O=C(O)C[C@H](NC(=O)[C@H](Cc1c[nH]cn1)NC(=O)[C@H](CO)NC(=O)[C@H](CC(=O)O)NC(=O)[C@H](Cc1c[nH]cn1)NC(=O)[C@H](CO)NC(=O)CCS)C(=O)O) | α-helical and α | extended |  |  |
| 3-MPA-GGGGD-OH ([Mpa]GGGGD-OH; SMILES O=C(O)C[C@H](NC(=O)CNC(=O)CNC(=O)CNC(=O)CNC(=O)CCS)C(=O)O) | α | α |  |  |
| 3-MPA-LLLHH ([Mpa]LLLHH) |  |  | 0.296 10^15 molecule/cm^2 | 41.4 ° |
| 3-MPA-LHDLHD-OH ([Mpa]LHDLHD-OH; SMILES CC(C)C[C@H](NC(=O)CCS)C(=O)N[C@@H](Cc1c[nH]cn1)C(=O)N[C@@H](CC(=O)O)C(=O)N[C@@H](CC(C)C)C(=O)N[C@@H](Cc1c[nH]cn1)C(=O)N[C@@H](CC(=O)O)C(=O)O) | α | α |  |  |
| 3-MPA-SSSHH ([Mpa]SSSHH) |  |  | 0.301 10^15 molecule/cm^2 | 40.0 ° |
| 3-MPA-DSDSD-OH ([Mpa]DSDSD-OH; SMILES O=C(O)C[C@H](NC(=O)[C@H](CO)NC(=O)[C@H](CC(=O)O)NC(=O)[C@H](CO)NC(=O)[C@H](CC(=O)O)NC(=O)CCS)C(=O)O) | extended | extended |  |  |
| 3-MPA-DDDHH ([Mpa]DDDHH) |  |  | 0.279 10^15 molecule/cm^2 | 46.4 ° |
| 3-MPA-GGHHDD-OH ([Mpa]GGHHDD-OH; SMILES O=C(O)C[C@H](NC(=O)[C@H](CC(=O)O)NC(=O)[C@H](Cc1c[nH]cn1)NC(=O)[C@H](Cc1c[nH]cn1)NC(=O)CNC(=O)CNC(=O)CCS)C(=O)O) | α | α |  |  |
| 3-MPA-LLHHDD-OH ([Mpa]LLHHDD-OH; SMILES CC(C)C[C@H](NC(=O)CCS)C(=O)N[C@@H](CC(C)C)C(=O)N[C@@H](Cc1c[nH]cn1)C(=O)N[C@@H](Cc1c[nH]cn1)C(=O)N[C@@H](CC(=O)O)C(=O)N[C@@H](CC(=O)O)C(=O)O) | α | α |  |  |
| 3-MPA-LLLDD ([Mpa]LLLDD) |  |  | 0.352 10^15 molecule/cm^2 | 52.3 ° |
| 3-MPA-LLLSS ([Mpa]LLLSS) |  |  | 0.255 10^15 molecule/cm^2 | 32.6 ° |
| 3-MPA-HHHSS ([Mpa]HHHSS) |  |  | 0.125 10^15 molecule/cm^2 | 39.9 ° |
| 3-MPA-SSSDD ([Mpa]SSSDD) |  |  | 0.441 10^15 molecule/cm^2 | 38.8 ° |
| 3-MPA-DDDSS ([Mpa]DDDSS) |  |  | 0.311 10^15 molecule/cm^2 | 51.2 ° |
